For data set [1], the target named is T1, Hfq (Pseudomonas aeruginosa, UniProt Q9HUM0 Q9HUM0:1-82). As to the kind of experiment: EMSA; apparent Kd, Hill fit; 50 mM Tris, 250 mM NH4Cl pH 7.5, tRNA, 37 C; exact value in figure only. The settings on record: tags: His tag (pET28a, TALON purified, anti-His6 used); chain copies: 6 inferred; label: 32P-UTP internal; I-shaped terminator.
Data set [2] deals with T1, Hfq. The data set can be described thus: EMSA; apparent Kd, Hill fit; two cooperative binding sites; 50 mM Tris, 250 mM NH4Cl pH 7.5, tRNA, 37 C; exact value in figure only. The settings on record: tags: His tag (pET28a, TALON purified, anti-His6 used), chain copies: 6 inferred, label: 32P-UTP internal.

The record followed here is patent publication US20210395731, “METHOD AND COMPOSITION FOR INHIBITING GROWTH OF BACTERIUM” (City University of Hong Kong, published 2021).

T1 sequence (Q9HUM0 whole entry, one chain of several): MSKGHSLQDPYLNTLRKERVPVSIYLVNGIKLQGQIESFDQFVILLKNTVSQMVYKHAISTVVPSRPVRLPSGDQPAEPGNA

B1: AS1974 sRNA (ssRNA)
RNA: GAAUGUUCUUAAAUAUCCUCAAGCGGUUGCGCGGCCAGGCACUGGUCGAGGAGAUGCACCAGGGUGGCCUGUUCCACCGGGGUGAGCGGGGCAAACAACUCGUCAUGCACGCGUGACAUGAUGGCCUC
With B1, the Kd in the data set with Hfq [1] was below 150 nM.

B2: AS2779 sRNA (ssRNA)
RNA: GCGAACCCCAAGGGUAUUUCCCGACCAGCUCCCCCGCGGUCGGGAUUUUUUUUUGCCUGUCGCUCAGCGCUUCGGGUCGAAGGGCGAAUAGCCCCGCCGGCGCAGGCUCGCCAGGGGCGCGAACAGCGG
As to B2, the Kd with Hfq [2] (I-shaped terminator, canonical terminator in the middle) is below 150 nM.

B3: IGR2780 sRNA (ssRNA)
RNA: GCUGUACAUCCCUGGAUCCUUUCCCGGCCUGCUCCACGCGGCCGGGAUUUUUUUUGCCC
As to B3, the Kd with Hfq [2] (terminator stem-loop with poly(U) stretch) is below 150 nM.
